Here are results for 83 variants from the RNAGym collection of RNA variant scans (doi:10.1073/pnas.2313332121).

Fewer inactive variants are shown than the library holds.

To fix the notation:
B1: TPR 5TU (parent)
chain: GGAUCUUCUCGAUCUAACAAAAAAGACAAAUCUGCCACAAAGCUUGAGAGCAUCUUCGGAUGCAGAGGCGGCAGCCUUCGGUGGCGCGAUAGCGCCAACGUUCUCAACUAUGACACGCAAAACGCGUGCUCCGUUGAAUGGAGUUUAUCAUG

The variants in the data set derive from B1. Nature of the data set: polymerase ribozyme fitness, log enrichment relative to wild type (log ratio); higher = more active; in vitro selection for triplet polymerase activity. An outline of the steps:
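Both subunits of a heterodimeric triplet polymerase ribozyme were given their own mutant library, built by PCR and transcribed. Each library was annealed with a biotinylated primer, the partner subunit and triplets, incubated frozen at −7 °C, and its extended constructs gel-excised, captured on streptavidin beads and amplified by RT-PCR, all in one round done in triplicate. Fitness is the logarithm of genotype enrichment relative to wild-type enrichment, with replicates averaged by inverse-variance weighting. That logarithm is base 2, and Illumina-sequenced genotypes needed ≥10 input reads and ≥1 read per output.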
In the case of C14U G84C A122G G136A, the “polymerase ribozyme fitness (log ratio)” value is -3.51. A17C C18A U33A G80C C87A C108A G152C: the “polymerase ribozyme fitness (log ratio)” value is at most -4.2. To U15G C38U A41C A52U G59U G65C G141A belongs at most -4.2.

With A16G A91G C118U A150U, the “polymerase ribozyme fitness (log ratio)” value was -3.08. U15A A20U A23G A37G G68C C96U C129G U144A: the “polymerase ribozyme fitness (log ratio)” value was at most -4.2. The result for U15G C43U C57A C85G A106C reads at most -4.2; that for U15G U53A C95A, -1.48; that for A16C A22U A97U C114A U135G, at most -4.2. To A16C A20U A40U C54U G58U A60C belongs -4.15. As to A16G A37U G92U, the “polymerase ribozyme fitness (log ratio)” value is -2.9.

Consider U15C A17U C51U G83A C123G G152A, for which the “polymerase ribozyme fitness (log ratio)” value was -2.38.

On to A16C G58U U101G C105A U144G, for which the “polymerase ribozyme fitness (log ratio)” value was at most -4.2. To U15A A40G U55A A60U C114A belongs at most -4.2. To U15A A22C C72A C87G G88U G133C belongs at most -4.2; to A16U C18G G94A, -2.97; to C14U U45A G50C C57A A91U C103G C105A, at most -4.2.

On to A16U C96A, for which the “polymerase ribozyme fitness (log ratio)” value is -2.78.

A16U G84U C129A: the “polymerase ribozyme fitness (log ratio)” value was at most -4.2.

Regarding C14U G83A C116A G141A, the “polymerase ribozyme fitness (log ratio)” value is -3.95.

For the variant A16U C51A G74U C87A A107U, the “polymerase ribozyme fitness (log ratio)” value is at most -4.2. The result for A16U G83C C129G A137C U145C reads at most -4.2.

Turning to C14U G58U, the “polymerase ribozyme fitness (log ratio)” value was -0.884. The result for A16G G92U C93U C118U reads -2.94; that for A16U G84U, -3.5; that for A16C C75A C76A C125G, at most -4.2. To U15C A49G C116A A138U belongs -3.99; to A16G G25A U45C U53A A91C C103G C108U C125U, at most -4.2. To A17C C96U A107C belongs -3.77; to A17C C38A G94A, 0.661. As for A17C C85A, the “polymerase ribozyme fitness (log ratio)” value is -2.22.

Regarding A16U U55A, the “polymerase ribozyme fitness (log ratio)” value was -2.64. To A17C C85G C149G belongs at most -4.2; to A16C C85A, -2.36. The result for A16U A47C G59A C87G U90A U101A A113G reads at most -4.2; that for A16G U31G G46A U55A C95G, at most -4.2; that for U15C U56A C69A G84A G136A, -0.468. The result for U15G A21G U135C reads -2.43; that for A16U A22U A23G A60U C95U C108U A119G C123U, at most -4.2. On to A16G C93A, for which the “polymerase ribozyme fitness (log ratio)” value was -2.12. The result for U15G G59C A73G C85A reads -2.7.

Take A16C A40C G80A G92U A113G U135C G140A: the “polymerase ribozyme fitness (log ratio)” value was at most -4.2. To A16C A37C A39C C85U belongs at most -4.2; to U15G G48A C116U G152A, -2.5. To A16U C18G A21U A98G C105U belongs at most -4.2; to A17C C85U A120G G124U G143C, -3.22; to A16C G92U C105U A107U A110C A138C, at most -4.2.

As to A16U C93U A106C, the “polymerase ribozyme fitness (log ratio)” value is -3.19.

For the variant A17C A39G U44G C63A A73G A113G A121U G141A, the “polymerase ribozyme fitness (log ratio)” value is at most -4.2.

In the case of A16U C36U C51A G92A, the “polymerase ribozyme fitness (log ratio)” value is at most -4.2.

U15C C54A C57G C87U A150G: the “polymerase ribozyme fitness (log ratio)” value is -3.99. To A16C A21C G50A C85U C125G belongs -2.99; to A16G A20C A22C C32G A66G C118G G126A C132A, at most -4.2. To C14U C99A G136A belongs -2.47; to U15G C57U G58C C76A, -0.888; to C14U C32U U61C A91U, at most -4.2. The result for C14U C36G G71U A122U G124U reads at most -4.2; that for A16C U31A, -0.733; that for C14U U44A C57A G58C A73U G83C A91U, at most -4.2. C14U G59A C87U U90G C114A: the “polymerase ribozyme fitness (log ratio)” value is at most -4.2. To A16G U44A A73G C87U C93U belongs at most -4.2. For the variant U15A A22C A40C A60G, the “polymerase ribozyme fitness (log ratio)” value turned out to be 0.68. To A16C C38A C76U belongs -2.07. The result for A16U C75U G86A reads -2.59; that for U15A U111C G112U, -3.91; that for A16C A21C A49C C54U C96U, -4.18. The result for U15A A20C C76U U82G A91U C118A G140C reads at most -4.2; that for U15A A142C A147U, -1.65. As to A16U U61G U77C C85A G92C U144A, the “polymerase ribozyme fitness (log ratio)” value is at most -4.2.

Turning to U15A A17U G65U, the “polymerase ribozyme fitness (log ratio)” value is at most -4.2.

Consider U15A A30G U78G C87G, for which the “polymerase ribozyme fitness (log ratio)” value was at most -4.2. To A17C C54A C87A C114U belongs at most -4.2.

On to A16U U31C C35U A37C C76G C105G G117A, for which the “polymerase ribozyme fitness (log ratio)” value is at most -4.2. The result for A16G U53A reads -1.79.

In the case of A17C C85A C99A, the “polymerase ribozyme fitness (log ratio)” value is -2.66. For the variant U15A A49C U53A G86U, the “polymerase ribozyme fitness (log ratio)” value was at most -4.2. To U15G A16U C95U A121U U130G belongs at most -4.2; to U15A G84A C93A U134G, -4.09.

In the case of A17C A30U A60C G62A A66G G84A C118A, the “polymerase ribozyme fitness (log ratio)” value is at most -4.2. The result for U15G C54G G81A C95U reads -2.2. As to U15A C38A A73U G83U G84C, the “polymerase ribozyme fitness (log ratio)” value was at most -4.2.

For C14U G34A G84U G140U, the “polymerase ribozyme fitness (log ratio)” value is at most -4.2. With A16C A22C U82G C85U A98C G136U, the “polymerase ribozyme fitness (log ratio)” value is at most -4.2. The result for A16C C96G G140U reads at most -4.2.
